One may read the stoichiometry N as a count of units in the complex or per binding partner.

Consider one molecule from PMC8994517 (Nature, 2021).

This assay addresses Human Hsp90α (human, UniProt P07900 1-732). As to the kind of experiment: cryo-EM structure.

B1: Human p23 (natural protein, UniProt Q15185 1-160, looked up)
chain: MQPASAKWYDRRDYVFIEFCVEDSKDVNVNFEKSKLTFSCLGGSDNFKHLNEIDLFHCIDPNDSKHKRTDRSILCCLRKGESGQSWPRLTKERAKLNWLSVDFNNWKDWEDDSDEDMSNFDRFSEMMNNMGGDEDVDLPEVDGADDDSQDSDDEKMPDLE
Consider B1, for which the “stoichiometry N” value came out at 1 p23 per Hsp90 dimer.
